What all share (experiment): ELISA, plate coated with His-tagged antigen
For one assay, the target named is T1, Human TGF-β1 (human, UniProt P01137 279-390).
T1 construct: also called TGF-01; TGF-β1 antigen; not shown: His tag

Another assay concerns the target T2, Human VEGFA (human, UniProt P15692 207-395).
T2 construct: also called VEGF antigen; not shown: His tag
T2 sequence: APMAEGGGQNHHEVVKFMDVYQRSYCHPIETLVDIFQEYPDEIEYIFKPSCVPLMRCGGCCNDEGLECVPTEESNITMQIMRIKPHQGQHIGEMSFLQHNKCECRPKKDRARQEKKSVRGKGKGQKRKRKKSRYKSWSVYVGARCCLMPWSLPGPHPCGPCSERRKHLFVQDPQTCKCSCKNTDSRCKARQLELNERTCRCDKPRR

For a further assay, the target named is T3, Human PD-1 (human, UniProt Q15116 25-170).
T3 construct: also called PD-1 antigen; not shown: His tag

A further assay concerns the target T4, Human TIGIT (human, UniProt Q495A1 22-141).
T4 construct: also called TIGIT antigen; not shown: His tag
T4 sequence: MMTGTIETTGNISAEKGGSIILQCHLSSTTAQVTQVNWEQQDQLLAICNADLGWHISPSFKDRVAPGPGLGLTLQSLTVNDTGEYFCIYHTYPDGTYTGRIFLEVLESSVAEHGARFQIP

T3 sequence (Q15116 25-170): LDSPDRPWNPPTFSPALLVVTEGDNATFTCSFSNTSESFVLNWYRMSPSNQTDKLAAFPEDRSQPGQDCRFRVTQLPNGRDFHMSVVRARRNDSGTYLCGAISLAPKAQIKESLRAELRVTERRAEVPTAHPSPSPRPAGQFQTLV
T1 sequence (P01137 279-390 limits assumed): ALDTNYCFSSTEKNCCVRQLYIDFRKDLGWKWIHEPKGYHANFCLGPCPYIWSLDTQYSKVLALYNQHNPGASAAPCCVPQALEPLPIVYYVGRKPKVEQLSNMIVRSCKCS
Procedure for Human PD-1: (§1) 2) addition of antibody: according to the experimental design, operation was performed at room temperature, and the antibody was diluted in gradient with 1% BSA in PBS. […] The diluted antibody was added into wells of microtiter plate at 200 μl/well, incubated at room temperature for 2h, and then the supernatant was discarded;
Procedure for Human TGF-β1: as §1
Procedure for Human TIGIT: as §1
Procedure for Human VEGFA: as §1

B1: 3G12mAb (antibody, human IgG1, kappa, V domains shown)
VH: QVQLVQSGAEVKKPGSSVKVSCKASGYTFSSNVISWVRQAPGQGLEWMGGVIPIVDIANYAQRFKGRVTITADESTSTTYMELSSLRSEDTAVYYCASTLGLVLDAMDYWGQGTLVTVSS
VL: ETVLTQSPGTLSLSPGERATLSCRASQSLGSSYLAWYQQKPGQAPRLLIYGASSRAPGIPDRFSGSGSGTDFTLTISRLEPEDFAVYYCQQYADSPITFGQGTRLEIKR
notes: anti-TGF-β monoclonal antibody, human IgG1 constant domains, kappa
A word on the EC50: it is the concentration needed to bring the measured effect to its halfway point. B1 yielded an EC50 in the assay with Human TGF-β1 of 0.0026 nM.

B2: Y206-A2 (bispecific antibody, human IgG1, kappa)
light: not shown
heavy: EVQLVESGGGLVQPGGSLRLSCAASGFTISDYWIHWVRQAPGKGLEWVAGITPAGGYTYYADSVKGRFTISADTSKNTAYLQMNSLRAEDTAVYYCARFVFFLPYAMDYWGQGTLVTVSSASTKGPSVFPLAPSSKSTSGGTAALGCLVKDYFPEPVTVSWNSGALTSGVHTFPAVLQSSGLYSLSSVVTVPSSSLGTQTYICNVNHKPSNTKVDKKVEPKSCDKTHTCPPCPAPPVAGPSVFLFPPKPKDTLMISRTPEVTCVVVDVSHEAPEVQFNWYVDGVEVHNAKTKPREEQFNSTFRVVSVLTVVHQDWLNGKEYKCKVSNKGLPAPIEKTISKTKGQPREPQVYTLPPSRDELTKNQVSLTCLVKGFYPSDIAVEWESNGQPENNYKTTPPVLDSDGSFFLYSKLTVDKSRWQQGNVFSCSVMHEALHNHYTQKSLSLSPGAGGGGSGGGGSGGGGSGQVQLVESGGGVVQPGRSLRLDCKASGITFSNSGMHWVRQAPGKGLEWVAVIWYDGSKRYYADSVKGRFTISRDNSKNTLFLQMNSLRAEDTAVYYCATNDDYWGQGTLVTVSSGGGGSGGGGSGGGGSEIVLTQSPATLSLSPGERATLSCRASQSVSSYLAWYQQKPGQAPRLLIYDASNRATGIPARFSGSGSGTDFTLTISSLEPEDFAVYYCQQSSNWPRTFGQGTKVEIK
notes: structure 2 IgG(H)-ScFv, A series; IgG G631 (anti-VEGF), scFv 5C4 (anti-PD-1)
Consider B2, for which the 50% effective concentration (EC50) with Human VEGFA stood at 0.063 nM; in the assay with Human PD-1, 0.45 nM.

B3: Y206-B2 (bispecific antibody, human IgG1, kappa)
light: not shown
heavy: EVQLVESGGGLVQPGGSLRLSCAASGFTISDYWIHWVRQAPGKGLEWVAGITPAGGYTYYADSVKGRFTISADTSKNTAYLQMNSLRAEDTAVYYCARFVFFLPYAMDYWGQGTLVTVSSASTKGPSVFPLAPSSKSTSGGTAALGCLVKDYFPEPVTVSWNSGALTSGVHTFPAVLQSSGLYSLSSVVTVPSSSLGTQTYICNVNHKPSNTKVDKKVEPKSCDKTHTCPPCPAPPVAGPSVFLFPPKPKDTLMISRTPEVTCVVVDVSHEAPEVQFNWYVDGVEVHNAKTKPREEQFNSTFRVVSVLTVVHQDWLNGKEYKCKVSNKGLPAPIEKTISKTKGQPREPQVYTLPPSRDELTKNQVSLTCLVKGFYPSDIAVEWESNGQPENNYKTTPPVLDSDGSFFLYSKLTVDKSRWQQGNVFSCSVMHEALHNHYTQKSLSLSPGAGGGGSGGGGSGGGGSGEIVLTQSPATLSLSPGERATLSCRASQSVSSYLAWYQQKPGQAPRLLIYDASNRATGIPARFSGSGSGTDFTLTISSLEPEDFAVYYCQQSSNWPRTFGQGTKVEIKGGGGSGGGGSGGGGSQVQLVESGGGVVQPGRSLRLDCKASGITFSNSGMHWVRQAPGKGLEWVAVIWYDGSKRYYADSVKGRFTISRDNSKNTLFLQMNSLRAEDTAVYYCATNDDYWGQGTLVTVSS
notes: structure 2 IgG(H)-ScFv, B series; IgG G631 (anti-VEGF), scFv 5C4 (anti-PD-1)
On to B3, for which the 50% effective concentration (EC50) with Human VEGFA was 0.0596 nM; in the assay with Human PD-1 it was 0.312 nM.

B4: 10A7mAb (antibody, human IgG1, kappa, V domains shown)
VH: EVQLVESGGGLTQPGKSLKLSCEASGFTFSSFTMHWVRQSPGKGLEWVAFIRSGSGIVFYADAVRGRFTISRDNAKNLLFLQMNDLKSEDTAMYYCARRPLGHNTFDSWGQGTLVTVSS
VL: DIVMTQSPSSLAVSPGEKVTMTCKSSQSLYYSGVKENLLAWYQQKPGQSPKLLIYYASIRFTGVPDRFTGSGSGTDYTLTITSVQAEDMGQYFCQQGINNPLTFGDGTKLEIKR
notes: anti-TIGIT monoclonal antibody, human IgG1 constant domains, kappa
Molecule B4 showed an EC50 with Human TIGIT of 0.0831 nM. This counts as picomolar.

The record behind these values is patent US20230080842A1 (WUHAN YZY BIOPHARMA, published 2023).
